These results are taken from patent US20250003951A1 (OXFORD UNIVERSITY INNOVATION, published 2025).

First the molecules themselves.
B1: OX747 Peptides 157/158 clone 4 TCR (TCR, V domains shown)
V domain 1: AQKVTQAQTEISVVEKEDVTLDCVYETRDTTYYLFWYKQPPSGELVFLIRRNSFDEQNEISGRYSWNFQKSTSSFNFTITASQVVDSAVYFCALSEMNRDDKIIFGKGTRLHILP
V domain 2: NAGVMQNPRHLVRRRGQEARLRCSPMKGHSHVYWYRQLPEEGLKFMVYLQKENIIDESGMPKERFSAEFPKEGPSILRIQQVVRGDSAAYFCASSPTGVSGNTIYFGEGSWLTVVE
B2: OX747 Peptides 157/158 clone 1 TCR (TCR)
TCR alpha 1: KNEVEQSPQNLTAQEGEFITINCSYSVGISALHWLQQHPGGGIVSLFMLSSGKKKHGRLIATINIQEKHSSLHITASHPRDSAVYICAVSTGGATNKLIFGTGTLLAVQPNIQNPDPAVYQLRD
TCR alpha 2: KNEVEQSPQNLTAQEGEFITINCSYSVGISALHWLQQHPGGGIVSLFMLSSGKKKHGRLIATINIQEKHSSLHITASHPRDSAVYICAVQEGETSGSRLTFGEGTQLTVNPDIQNPDPAVYQLRD
TCR beta: NAGVTQTPKFQVLKTGQSMTLQCAQDMNHEYMSWYRQDPGMGLRLIHYSVGAGITDQGEVPNGYNVSRSTTEDFPLRLLSAAPSQTSVYFCASSPGFNGNTIYFGEGSWLTVVEDLNKVFPPEVAVFEPS
B3: OX747 Peptides 157/158 clone 5 TCR (TCR, V domains shown)
V domain 1: GQQLNQSPQSMFIQEGEDVSMNCTSSSIFNTWLWYKQDPGEGPVLLIALYKAGELTSNGRLTAQFGITRKDSFLNISASIPSDVGIYFCAGQQKTSGSRLTFGEGTQLTVNP
V domain 2: DGGITQSPKYLFRKEGQNVTLSCEQNLNHDAMYWYRQDPGQGLRLIYYSQIVNDFQKGDIAEGYSVSREKKESFPLTVTSAQKNPTAFYLCASSSPRDRVGQPQHFGDGTRLSILE
B4: OX747 Peptides 157/158 clone 2 TCR (TCR, V domains shown)
V domain 1: AQKVTQAQTEISVVEKEDVTLDCVYETRDTTYYLFWYKQPPSGELVFLIRRNSFDEQNEISGRYSWNFQKSTSSFNFTITASQVVDSAVYFCALSEATYNTDKLIFGTGTRLQVFP
V domain 2: ETGVTQSPTHLIKTRGQQVTLRCSSQSGHNTVSWYQQALGQGPQFIFQYYREEENGRGNFPPRFSGLQFPNYSSELNVNALELDDSALYLCASSSTGTDYGYTFGSGTRLTVVE
B5: OX747 Peptides 157/158 clone 3 TCR (TCR, V domains shown)
V domain 1: QKEVEQNSGPLSVPEGAIASLNCTYSDRGSQSFFWYRQYSGKSPELIMFIYSNGDKEDGRFTAQLNKASQYVSLLIRDSQPSDSATYLCAGRQTSYDKVIFGPGTSLSVIP
V domain 2: not shown
B6: OX1149 Peptide 190 clone 1 TCR (TCR, V domains shown)
V domain 1: SQQGEEDPQALSIQEGENATMNCSYKTSINNLQWYRQNSGRGLVHLILIRSNEREKHSGRLRVTLDTSKKSSSLLITASRAADTASYFCATDEAAGNKLTFGGGTRVLVKP
V domain 2: EPEVTQTPSHQVTQMGQEVILRCVPISNHLYFYWYRQILGQKVEFLVSFYNNEISEKSEIFDDQFSVERPDGSNFTLKIRSTKLEDSAMYFCASKRESLATGELFFGEGSRLTVLE
B7: OX1149 Peptide 190 clone 3 TCR (TCR, V domains shown)
V domain 1: GENVEQHPSTLSVQEGDSAVIKCTYSDSASNYFPWYKQELGKRPQLIIDIRSNVGEKKDQRIAVTLNKTAKHFSLHITETQPEDSAVYFCAARGGSNYKLTFGKGTLLTVNP
V domain 2: DAGVIQSPRHEVTEMGQEVTLRCKPISGHDYLFWYRQTMMRGLELLIYFNNNVPIDDSGMPEDRFSAKMPNASFSTLKIQPSEPRDSAVYFCASSTGGEQYFGPGTRLTVTE
B8: OX1149 Peptide 190 clone 2 TCR (TCR, V domains shown)
V domain 1: SQQGEEDPQALSIQEGENATMNCSYKTSINNLQWYRQNSGRGLVHLILIRSNEREKHSGRLRVTLDTSKKSSSLLITASRAADTASYFCAAMYSGGGADGLTFGKGTHLIIQP
V domain 2: EPEVTQTPSHQVTQMGQEVILRCVPISNHLYFYWYRQILGQKVEFLVSFYNNEISEKSEIFDDQFSVERPDGSNFTLKIRSTKLEDSAMYFCASSTQGQAYEQYFGPGTRLTVTE
B9: OX1149 Peptide 190 clone 5 TCR (TCR, V domains shown)
V domain 1: DQQVKQNSPSLSVQEGRISILNCDYTNSMFDYFLWYKKYPAEGPTFLISISSIKDKNEDGRFTVFLNKSAKHLSLHIVPSQPGDSAVYFCAATRAGGTSYGKLTFGQGTILTVHP
V domain 2: SQTIHQWPATLVQPVGSPLSLECTVEGTSNPNLYWYRQAAGRGLQLLFYSVGIGQISSEVPQNLSASRPQDRQFILSSKKLLLSDSGFYLCAWSVLAGVSQYFGPGTRLLVLE
B10: OX1149 Peptide 190 clone 4 TCR (TCR, V domains shown)
V domain 1: SQQGEEDPQALSIQEGENATMNCSYKTSINNLQWYRQNSGRGLVHLILIRSNEREKHSGRLRVTLDTSKKSSSLLITASRAADTASYFCATKGGNNRLAFGKGNQVVVIP
V domain 2: EPEVTQTPSHQVTQMGQEVILRCVPISNHLYFYWYRQILGQKVEFLVSFYNNEISEKSEIFDDQFSVERPDGSNFTLKIRSTKLEDSAMYFCASSAWTGETGYTFGSGTRLTVVE
B11: OX628 Peptides 80/81 clone 2 TCR (TCR, V domains shown)
V domain 1: GQQLNQSPQSMFIQEGEDVSMNCTSSSIFNTWLWYKQDPGEGPVLLIALYKAGELTSNGRLTAQFGITRKDSFLNISASIPSDVGIYFCAGANNNARLMFGDGTQLVVKP
V domain 2: SAVISQKPSRDICQRGTSLTIQCQVDSQVTMMFWYRQQPGQSLTLIATANQGSEATYESGFVIDKFPISRPNLTFSTLTVSNMSPEDSSIYLCSVTPGGGVNTEAFFGQGTRLTVVE
B12: OX628 Peptides 80/81 clone 1 TCR (TCR, V domains shown)
V domain 1: GQQLNQSPQSMFIQEGEDVSMNCTSSSIFNTWLWYKQEPGEGPVLLIALYKAGELTSNGRLTAQFGITRKDSFLNISASIPSDVGIYFCAGHQIQGAQKLVFGQGTRLTINP
V domain 2: NAGVTQTPKFRILKIGQSMTLQCTQDMNHNYMYWYRQDPGMGLKLIYYSVGAGITDKGEVPNGYNVSRSTTEDFPLRLELAAPSQTSVYFCASSYSGMNTEAFFGQGTRLTVVE
B13: OX628 Peptides 80/81 clone 3 TCR (TCR, V domains shown)
V domain 1: QKEVEQNSGPLSVPEGAIASLNCTYSDRGSQSFFWYRQYSGKSPELIMSIYSNGDKEDGRFTAQLNKASQYVSLLIRDSQPSDSATYLCAVSAGGTSYGKLTFGQGTILTVHP
V domain 2: DTAVSQTPKYLVTQMGNDKSIKCEQNLGHDTMYWYKQDSKKFLKIMFSYNNKELIINETVPNRFSPKSPDKAHLNLHINSLELGDSAVYFCASSQVLRGEQYFGPGTRLTVTE
B14: OX289 Peptides 73/74 clone 2 TCR (TCR)
TCR alpha: ELKVEQNPLFLSMQEGKNYTIYCNYSTTSDRLYWYRQDPGKSLESLFVLLSNGAVKQEGRLMASLDTKARLSTLHITAAVHDLSATYFCAVEETSGSRLTFGEGTQLTVNPDIQNPDPAVYQLRD
TCR beta 1: EAQVTQNPRYLITVTGKKLTVTCSQNMNHEYMSWYRQDPGLGLRQIYYSMNVEVTDKGDVPEGYKVSRKEKRNFPLILESPSPNQTSLYFCASSLRQGISPEQFFGPGTRLTVLEDLKNVFPPEVAVFEPS
TCR beta 2: EAQVTQNPRYLITVTGKKLTVTCSQNMNHEYMSWYRQDPGLGLRQIYYSMNVEVTDKGDVPEGYKVSRKEKRNFPLILESPSPNQTSLYFCASSERQGITEAFFGQGTRLTVVEDLNKVFPPEVAVFEPS
B15: OX289 Peptides 73/74 clone 3 TCR (TCR)
TCR alpha: AQSVTQLDSQVPVFEEAPVELRCNYSSSVSVYLFWYVQYPNQGLQLLLKYLSGSTLVKGINGFEAEFNKSQTSFHLRKPSVHISDTAEYFCAVSGTGANSKLTFGKGITLSVRPDIQNPDPAVYQLRD
TCR beta 1: GAGVSQSPSNKVTEKGKDVELRCDPISGHTALYWYRQSLGQGLEFLIYFQGNSAPDKSGLPSDRFSAERTGGSVSTLTIQRTQQEDSAVYLCASSDPISGRGDEQFFGPGTRLTVLEDLKNVFPPEVAVFEPS
TCR beta 2: GAGVSQSPSNKVTEKGKDVELRCDPISGHTALYWYRQSLGQGLEFLIYFQGNSAPDKSGLPSDRFSAERTGGSVSTLTIQRTQQEDSAVYLCASSFGGGAWNEQFFGPGTRLTVLEDLKNVFPPEVAVFEPS
B16: OX289 Peptides 73/74 clone 1 TCR (TCR, V domains shown)
V domain 1: RGEDVEQSLFLSVREGDSSVINCTYTDSSSTYLYWYKQEPGAGLQLLTYIFSNMDMKQDQRLTVLLNKKDKHLSLRIADTQTGDSAIYFCAESPSDGQKLLFARGTMLKVDL
V domain 2: EAQVTQNPRYLITVTGKKLTVTCSQNMNHEYMSWYRQDPGLGLRQIYYSMNVEVTDKGDVPEGYKVSRKEKRNFPLILESPSPNQTSLYFCASSLRQGISPEQFFGPGTRLTVLE

One test deals with T1, OX747-157 (human).
T1 peptide: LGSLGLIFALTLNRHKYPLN
Briefly: cell-based or functional assay.
For B1, the “Clone size (percent repertoire), IFNγ+ sorted T cells after peptide stimulation” value (“Clone size (percent repertoire)” for short) was 7.9 % of repertoire.
Still for that read-out and setting: under B2 stands 15.5 % of repertoire; under B3, 7.7 % of repertoire; under B4, 9.8 % of repertoire.
Same read-out and setting: next, B5: 8.7 % of repertoire.

In the next test the target is T2, OX1149-190 (human).
T2 peptide: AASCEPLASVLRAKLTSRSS
Briefly: cell-based or functional assay.
Regarding B6, the “Clone size (percent repertoire)” value was 18.3 % of repertoire.
Still for that read-out and setting: next, B7: 9 % of repertoire; B8: 17.3 % of repertoire; B9: 4.8 % of repertoire.
B10: the “Clone size (percent repertoire)” value was 5.7 % of repertoire.

The target of the next test is T3, OX628-80 (human).
T3 peptide: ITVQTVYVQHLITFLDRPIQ
Briefly: cell-based or functional assay.
As to B11, the “Clone size (percent repertoire)” value was 13.5 % of repertoire.
Same read-out and setting: next, B12: 55.1 % of repertoire; B13: 4.2 % of repertoire.

For a further test, the target named is T4, OX289-074 (human).
T4 peptide: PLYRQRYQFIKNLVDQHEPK
The test is described as follows: cell-based or functional assay.
Consider B14, for which the “Clone size (percent repertoire)” value was 25.6 % of repertoire.
The same measure, in the same setting: under B15 stands 8.67 % of repertoire; under B16, 32.3 % of repertoire.

The target of another test is T5, OX747-158 (human).
T5 peptide: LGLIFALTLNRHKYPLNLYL
The test is described as follows: cell-based or functional assay.
For B1, the “Clone size (percent repertoire)” value is 7.9 % of repertoire.
For B2, the “Clone size (percent repertoire)” value was 15.5 % of repertoire.
With B3, the “Clone size (percent repertoire)” value is 7.7 % of repertoire.
On to B4, for which the “Clone size (percent repertoire)” value was 9.8 % of repertoire.
The same measure, in the same setting: under B5 stands 8.7 % of repertoire.

For the next test, the target named is T6, OX289-073 (human).
T6 peptide: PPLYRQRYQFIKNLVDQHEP
The test is described as follows: cell-based or functional assay.
In the case of B14, the “Clone size (percent repertoire)” value was 25.6 % of repertoire.
The same measure, in the same setting: next, B15: 8.67 % of repertoire; B16: 32.3 % of repertoire.

For the next test, the target named is T7, OX628-81 (human).
T7 peptide: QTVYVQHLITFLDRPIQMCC
The test is described as follows: cell-based or functional assay.
In the case of B11, the “Clone size (percent repertoire)” value was 13.5 % of repertoire.
Same read-out and setting: next, B12: 55.1 % of repertoire; B13: 4.2 % of repertoire.
